Read-outs that look alike come from different tables or passages of the source.

In one data set the target is T1, zfNAGS-M (Danio rerio, UniProt E7FCP8).
T1 construct: gene nags; mature form, predicted mitochondrial targeting signal removed; N-terminus at Met47 of preprotein; N-terminal polyhistidine tag kept (pET15b); E. coli C41(DE3); predicted 55,498 Da; tetramer
T1 sequence (E7FCP8 46-527): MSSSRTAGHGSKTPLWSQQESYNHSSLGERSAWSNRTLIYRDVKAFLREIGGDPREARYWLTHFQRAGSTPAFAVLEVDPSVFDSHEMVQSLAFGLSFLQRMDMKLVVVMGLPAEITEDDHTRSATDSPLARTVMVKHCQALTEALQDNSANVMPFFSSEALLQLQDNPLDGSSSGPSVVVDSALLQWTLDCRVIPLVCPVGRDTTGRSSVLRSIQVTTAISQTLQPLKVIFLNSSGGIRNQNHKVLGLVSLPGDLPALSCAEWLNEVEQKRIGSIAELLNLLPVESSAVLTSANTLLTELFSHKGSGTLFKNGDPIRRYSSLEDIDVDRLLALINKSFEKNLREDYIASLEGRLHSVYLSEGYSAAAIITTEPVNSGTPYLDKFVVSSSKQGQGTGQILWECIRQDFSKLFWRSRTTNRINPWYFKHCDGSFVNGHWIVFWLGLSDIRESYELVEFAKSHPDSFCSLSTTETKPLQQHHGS
Nature of the data set: enzymatic activity assay, Michaelis-Menten fit. Conditions: no L-arginine. Format: biochemical. The source says: enzymatic activity assay, Michaelis-Menten fit on zfNAGS-M

In the next data set the target is T2, zfNAGS-C (Danio rerio, UniProt E7FCP8).
T2 construct: gene nags; conserved segment (AAK and NAT domains), targeting signal and variable segment removed; N-terminus at Gly73 of preprotein; N-terminal polyhistidine tag kept (pET15b); E. coli C41(DE3); predicted 52,752 Da
T2 sequence (E7FCP8 73-527): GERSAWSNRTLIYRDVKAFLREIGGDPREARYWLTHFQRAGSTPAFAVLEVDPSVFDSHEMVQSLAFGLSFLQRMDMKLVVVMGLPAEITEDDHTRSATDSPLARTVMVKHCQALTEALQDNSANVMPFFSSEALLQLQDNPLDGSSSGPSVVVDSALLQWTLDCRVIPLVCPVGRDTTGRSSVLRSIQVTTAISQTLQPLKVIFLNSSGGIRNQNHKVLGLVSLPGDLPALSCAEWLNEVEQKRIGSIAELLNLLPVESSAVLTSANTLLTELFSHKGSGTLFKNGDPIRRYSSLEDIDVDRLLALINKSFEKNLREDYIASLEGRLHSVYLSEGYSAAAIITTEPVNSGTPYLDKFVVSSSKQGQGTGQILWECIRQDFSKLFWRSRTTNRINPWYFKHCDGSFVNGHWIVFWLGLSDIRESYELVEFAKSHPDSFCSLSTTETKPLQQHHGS
The data set is described as follows: thermofluor with SYPRO Orange. Format: binding. The conditions noted are these: L-arginine up to 10 mM; no substrates; pH 7.5 phosphate. A general note: DSF heats the sample and reads unfolding from a dye or from intrinsic fluorescence.

For data set [1], the target named is mature zebrafish N-acetylglutamate synthase (zfNAGS-M) (zebrafish (Danio rerio)) (UniProt E7FCP8). The data set is described as follows: SEC; analytical gel chromatography, Superdex 200 HR 10/30, room temperature, 50 mM potassium phosphate pH 7.5, 300 mM KCl, 20% glycerol, 10 mM beta-mercaptoethanol, 0.006% Triton X-100, no L-arginine; 100 ul loaded at 0.5-1.3 mg/ml (zfNAGS-M) or 0.5-2.0 mg/ml (zfNAGS-C). A general note: Size exclusion chromatography separates by hydrodynamic size, large species first.

Substrate in data set [2]: CC(=O)SCCNC(=O)CCNC(=O)[C@H](O)C(C)(C)COP(=O)(O)OP(=O)(O)OC[C@H]1O[C@@H](n2cnc3c(N)ncnc32)[C@H](O)[C@@H]1OP(=O)(O)O
The data set is described as follows: enzymatic activity assay, Michaelis-Menten fit. Format: biochemical, Danio rerio. The conditions noted are these: 15 mM L-glutamate; no L-arginine. The text has this: (§1) enzymatic activity assay, Michaelis-Menten fit on zfNAGS-C

Substrate in data set [3]: N[C@@H](CCC(=O)O)C(=O)O
The data set is described as follows: enzymatic activity assay, Michaelis-Menten fit. Type of data set: biochemical, Danio rerio. Conditions: 4 mM AcCoA; no L-arginine.
Text: as §1

Turning to `N[C@@H](CCC(=O)O)C(=O)O` [L-glutamate], at zfNAGS-M (4 mM AcCoA, read-out: Glutamate / Km ^app), the Km was 1130 ± 130 µM.

In the case of `N=C(N)NCCC[C@H](N)C(=O)O` [L-arginine], the “thermofluor with SYPRO Orange” value on zfNAGS-C is “Addition of L-arginine to both zfNAGS-M and zfNAGS-C resulted in changes”.

`CC(=O)SCCNC(=O)CCNC(=O)[C@H](O)C(C)(C)COP(=O)(O)OP(=O)(O)OC[C@H]1O[C@@H](n2cnc3c(N)ncnc32)[C@H](O)[C@@H]1OP(=O)(O)O` [AcCoA]: at zfNAGS-M (15 mM L-glutamate, read-out: AcCoA / Km ^app), the Km worked out at 220 ± 30 µM.

In the case of “mature zebrafish N-acetylglutamate synthase (zfNAGS-M) (from UniProt E7FCP8 47-527) (enzyme)”, the stoichiometry N (in general, a count of units in the complex or per binding partner) in data set [1] came to 4.

B1: zfNAGS-C (Danio rerio) (protein)
chain: T2 sequence (E7FCP8 73-527)
notes: conserved segment (AAK and NAT domains), targeting signal and variable segment removed; N-terminus at Gly73 of preprotein; N-terminal polyhistidine tag kept (pET15b); E. coli C41(DE3); predicted 52,752 Da
B1: the Km in data set [2] came to 230 ± 60 µM; in data set [3] it was 1120 ± 210 µM. The Vmax – broadly, the rate approached at saturating substrate – in data set [2] amounted to 32.2 µmol/min/mg; in data set [3], 39.5 µmol/min/mg.

The values above are taken from PMC3899043, “Expression Pattern and Biochemical Properties of Zebrafish N-Acetylglutamate Synthase” (PLoS ONE, 2014).
